Patent publication US20060159695A1 (published 2006)
Positions count from the first letter of the chain named.

B1: Fab 007 (Fab, V domains shown)
VH: not shown
VL: DIVMTQSPDSLAVSLGERATINCRASQSVDLFGKSYMHWYQQKPGQPPKLLIYAASNPESGVPDRFSGSGSGTDFTLTISSLQAEDVAVYYCQQIIDDPWTFGQGTKVEIK
B2: Fab 024 (Fab, V domains shown)
VH: not shown
VL: B1 VL with Q27D, K34T
B3: Fab 026 (Fab, V domains shown)
VH: not shown
VL: B1 VL with Q27D, L31F
B4: Fab 029 (Fab, V domains shown)
VH: not shown
VL: B1 VL with Q27D, L31Y, K34V
B5: Fab 025 (Fab, V domains shown)
VH: not shown
VL: B1 VL
B6: Fab 017 (Fab, V domains shown)
VH: not shown
VL: B1 VL with Q27D, L31Y, K34Q
B7: Fab 032 (Fab, V domains shown)
VH: not shown
VL: B1 VL with Q27D, L31Y, K34R
B8: Fab 019 (Fab, V domains shown)
VH: not shown
VL: B1 VL with Q27D, K34Q
B9: Fab 009 (Fab, V domains shown)
VH: not shown
VL: B1 VL with Q27D, K34R
B10: Fab 010 (Fab, V domains shown)
VH: not shown
VL: B1 VL with Q27D, K34R
B11: Fab A10 (Fab, V domains shown)
VH: not shown
VL: B1 VL with F32L, K34G, D97E
B12: Fab 018 (Fab, V domains shown)
VH: not shown
VL: B1 VL with Q27D, K34Q, D97E
B13: Fab 030 (Fab, V domains shown)
VH: not shown
VL: B1 VL with L31Y, F32L
B14: Fab 028 (Fab, V domains shown)
VH: not shown
VL: B1 VL with Q27D, K34V, D97E
B15: Fab 014 (Fab, V domains shown)
VH: not shown
VL: B1 VL with Q27D, K34V
B16: Fab 016 (Fab, V domains shown)
VH: not shown
VL: B1 VL with L31Y, K34V
B17: Fab 012 (Fab, V domains shown)
VH: not shown
VL: B1 VL
B18: Fab 022 (Fab, V domains shown)
VH: not shown
VL: B1 VL with K34T
B19: Fab 013 (Fab, V domains shown)
VH: not shown
VL: B1 VL with Q27D, K34Q
B20: Fab 011 (Fab, V domains shown)
VH: not shown
VL: B1 VL with Q27D, K34Q
B21: Fab 008 (Fab, V domains shown)
VH: not shown
VL: B1 VL with Q27D
B22: Fab 015 (Fab, V domains shown)
VH: not shown
VL: B1 VL with L31F, K34T

Assays:
[1] = target: T1, soluble, extracellular domain of recombinantly expressed RSV F protein (human RSV); assay: SPR (Biacore), Fab over captured biotinylated RSV-F;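 on Kd: purified Fabs injected at a single concentration, reference surface subtracted, rate constants from a one-to-one binding model fit, Kd computed as koff divided by kon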;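 on koff: purified Fabs injected at a single concentration, reference surface subtracted, rate constants from a one-to-one binding model fit, Kd computed as koff divided by kon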;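 on kon: purified Fabs injected at a single concentration, reference surface subtracted, rate constants from a one-to-one binding model fit, Kd computed as koff divided by kon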
T1 construct: extracellular domain; also called recombinant RSV F protein; recombinant RSV-F

[2] = target: RSV F protein on human RSV virus (Long strain) (human RSV, Long strain, UniProt P12568 26-574); assay: cell-based or functional assay
[3] = target: T1, soluble, extracellular domain of …; assay: SPR (Biacore), Fab over captured biotinylated RSV-F; remark: listed apart in the source

T1 sequence (P12568 26-109, chain 1 of 2): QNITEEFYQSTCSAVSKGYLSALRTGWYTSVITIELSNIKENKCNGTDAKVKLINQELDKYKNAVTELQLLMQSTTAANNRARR
T1 sequence (P12568 137-524, chain 2 of 2): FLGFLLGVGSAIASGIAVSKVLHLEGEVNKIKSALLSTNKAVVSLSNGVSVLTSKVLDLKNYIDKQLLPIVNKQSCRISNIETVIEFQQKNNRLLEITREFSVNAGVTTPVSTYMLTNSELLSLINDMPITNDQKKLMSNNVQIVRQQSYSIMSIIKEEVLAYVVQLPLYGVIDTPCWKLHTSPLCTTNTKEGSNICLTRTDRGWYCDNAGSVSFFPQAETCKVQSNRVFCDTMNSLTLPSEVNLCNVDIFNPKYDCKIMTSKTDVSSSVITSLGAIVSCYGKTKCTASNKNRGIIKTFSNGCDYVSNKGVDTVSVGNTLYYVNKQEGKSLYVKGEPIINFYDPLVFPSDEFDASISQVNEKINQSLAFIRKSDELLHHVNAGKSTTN

Row | Binder | Kd [1] | koff [1] | kon [1] | Viral Neut (fold increase over wild-type B23 Fab) [2] | fold decrease in binding dissociation constant (Kd) relative to A7 [3]
1 | B1 | 0.058 nM | 0.00019 s⁻¹ | 3.3e+06 M⁻¹ s⁻¹ | 5 fold | 
2 | B2 | 0.002 nM | 7e-06 s⁻¹ | 3.14e+06 M⁻¹ s⁻¹ | > 23 fold | 
3 | B3 | 0.028 nM | 6.6e-05 s⁻¹ | 2.39e+06 M⁻¹ s⁻¹ | 20 fold | 
4 | B4 | 0.009 nM | 4e-05 s⁻¹ | 4.58e+06 M⁻¹ s⁻¹ | > 23 fold | 
5 | B5 | 0.018 nM | 4.6e-05 s⁻¹ | 2.52e+06 M⁻¹ s⁻¹ | 20 fold | 
6 | B6 | 0.054 nM | 8.1e-05 s⁻¹ | 1.5e+06 M⁻¹ s⁻¹ | > 23 fold | 
7 | B7 | 0.039 nM | 3.6e-05 s⁻¹ | 930000 M⁻¹ s⁻¹ | > 23 fold | 
8 | B8 | 0.0135 nM | 4.5e-05 s⁻¹ | 3.34e+06 M⁻¹ s⁻¹ | > 23 fold | 
9 | B9 | 0.028 nM | 7.9e-05 s⁻¹ | 2.8e+06 M⁻¹ s⁻¹ | 19 fold | ~4 fold
10 | B10 | 0.047 nM | 0.00018 s⁻¹ | 3.8e+06 M⁻¹ s⁻¹ | 18 fold | 
11 | B11 | 0.175 nM | 0.000147 s⁻¹ | 850000 M⁻¹ s⁻¹ |  | 
12 | B12 | 0.055 nM | 8.8e-05 s⁻¹ | 1.6e+06 M⁻¹ s⁻¹ |  | 
13 | B13 | 0.073 nM | 7.5e-05 s⁻¹ | 1.03e+06 M⁻¹ s⁻¹ | 18 fold | 
14 | B14 | 0.02 nM | 8.6e-05 s⁻¹ | 4.2e+06 M⁻¹ s⁻¹ | 18 fold | 
15 | B15 | 0.184 nM | 7e-05 s⁻¹ | 380000 M⁻¹ s⁻¹ | < 1 fold | 
16 | B16 | 0.09 nM | 9e-05 s⁻¹ | 1e+06 M⁻¹ s⁻¹ | 10 fold | 
17 | B17 | 0.005 nM | 1.5e-05 s⁻¹ | 3e+06 M⁻¹ s⁻¹ | 11 fold | 
18 | B18 | 0.025 nM | 5.4e-05 s⁻¹ | 2.16e+06 M⁻¹ s⁻¹ | 22 fold | 
19 | B19 | 0.058 nM | 0.00021 s⁻¹ | 3.6e+06 M⁻¹ s⁻¹ | 13 fold | 
20 | B20 | 0.007 nM | 2.7e-05 s⁻¹ | 4e+06 M⁻¹ s⁻¹ | > 23 fold | 
21 | B21 | 0.133 nM | 0.00028 s⁻¹ | 2.1e+06 M⁻¹ s⁻¹ | 15 fold | 
22 | B22 | 0.016 nM | 7.8e-05 s⁻¹ | 5e+06 M⁻¹ s⁻¹ | 8 fold | 
